Tested on: washed platelets
Test: Ristocetin-induced agglutination of washed platelets after preincubation with scFv
Format: cell-based, human
Experimental: Aggregation is determined in PRP due to the presence of thrombotic agents, while agglutination is determined in washed platelets. The effect of Y1 (scFv) on agglutination of washed platelets was tested at various concentrations of Y1. Platelets were pre-incubated with Y1 scFv, Y17 scFv, Y16-scFv, or a control TM-1 scFv for 4 min at 37° C. before being exposed to ristocetin, an inducer of platelet agglutination and aggregation.
Platelet concentrate in acid-citrate-dextrose (ACD) was obtained from a blood bank, platelets were isolated, washed once in buffer containing ACD and saline in a ratio of 1:7. The platelets were centrifuged at 800 g for 10 min after each wash and were resuspended in Tyrodes solution (2 mM MgCl2, 137 mM NaCl, 2.68 mM KCl, 3 mM NaH2PO4, 0.1% glucose, 5 mM Hepes and 0.35% albumin, pH 7.35) and count the number of cells.
For platelet aggregation studies, platelet rich plasma (PRP) and washed platelets were stirred at 500 rpm at 37° C. in whole blood Lumiaggregometer (Chronolog, Havertown,Pa.). The difference in light transmission through the platelet suspension and suspending medium was taken as 100% aggregation. The effect of Y1 on platelet aggregation was evaluated by addition of different concentration of Y1 before the addition of agonist, and the effect was recorded for four minutes.
The effect of Y17-scFv on vWF-dependent agglutination of platelets was tested at different concentrations of Y17.

B1: Y1 scFv: fully human scFv clone binding platelets and myelogenous leukemia cells, SEQ ID NO: 25 (protein, listed as Homo sapiens)
scFv: MKYLLPTAAAGLLLLAAQPAMAEVQLVESGGGVVRPGGSLRLSCAASGFTFDDYGMSWVRQAPGKGLEWVSGINWNGGSTGYADSVKGRFTISRDNAKNSLYLQMNSLRAEDTAVYYCARMRAPVIWGQGTLVTVSRGGGGSGGGGSGGGGSSELTQDPAVSVALGQTVRITCQGDSLRSYYASWYQQKPGQAPVLVIYGKNNRPSGIPDRFSGSSSGNTASLTITGAQAEDEADYYCNSRDSSGNHVVFGGGTKLTVLGAAAEQKLISEEDLNGAA
B1 was tested, and the “% agglutination” value (scFv 4 μg/ml) was 92%, the “% inhibition” value (scFv 4 μg/ml) was 8% and the “% inhibition” value (scFv 4 μg/ml, listed as Y1) was “No inhibition”. For the same molecule, the “% agglutination” value (scFv 12.5 μg/ml) was 67%, the “% inhibition” value (scFv 12.5 μg/ml) was 33% and the “% inhibition” value (scFv 12.5 μg/ml, listed as Y1) was “only partial inhibition”. The “% agglutination” value (scFv 25 μg/ml, ristocetin = 100% agglutination) was 23%.

— US20040001822A1, “Y1-isolated molecules comprising epitopes containing sulfated moieties, antibodies to such epitopes, and uses thereof” (priority 2000, published 2004)
